Data on one variant can be found in IntAct's records for PubMed 16365431.

First the molecules themselves.
B1: Inhibitor of nuclear factor kappa-B kinase subunit beta (Homo sapiens), O14920 (parent)
chain: MSWSPSLTTQTCGAWEMKERLGTGGFGNVIRWHNQETGEQIAIKQCRQELSPRNRERWCLEIQIMRRLTHPNVVAARDVPEGMQNLAPNDLPLLAMEYCQGGDLRKYLNQFENCCGLREGAILTLLSDIASALRYLHENRIIHRDLKPENIVLQQGEQRLIHKIIDLGYAKELDQGSLCTSFVGTLQYLAPELLEQQKYTVTVDYWSFGTLAFECITGFRPFLPNWQPVQWHSKVRQKSEVDIVVSEDLNGTVKFSSSLPYPNNLNSVLAERLEKWLQLMLMWHPRQRGTDPTYGPNGCFKALDDILNLKLVHILNMVTGTIHTYPVTEDESLQSLKARIQQDTGIPEEDQELLQEAGLALIPDKPATQCISDGKLNEGHTLDMDLVFLFDNSKITYETQISPRPQPESVSCILQEPKRNLAFFQLRKVWGQVWHSIQTLKEDCNRLQQGQRAAMMNLLRNNSCLSKMKNSMASMSQQLKAKLDFFKTSIQIDLEKYSEQTEFGITSDKLLLAWREMEQAVELCGRENEVKLLVERMMALQTDIVDLQRSPMGRKQGGTLDDLEEQARELYRRLREKPRDQRTEGDSQEMVRLLLQAIQSFEKKVRVIYTQLSKTVVCKQKALELLPKVEEVVSLMNEDEKTVVRLQEKRQKELWNLLKIACSKVRGPVSGSPDSMNASRLSQPGQLMSQPSTASNSLPEPAKKSEELVAEAHNLCTLLENAIQDTVREQDQSFTALDWSWLQTEEEEHSCLEQAS

The variants in the assay derive from B1. Particulars: with ikba_human NFKBIA.
Consider K44M, for which the “effect of a mutation on the interaction” value is on record as “disrupting interaction”.
